According to IntAct's records for PubMed 17377532:

B1: Forkhead box protein P3 (Mus musculus), Q99JB6 (parent)
chain: MPNPRPAKPMAPSLALGPSPGVLPSWKTAPKGSELLGTRGSGGPFQGRDLRSGAHTSSSLNPLPPSQLQLPTVPLVMVAPSGARLGPSPHLQALLQDRPHFMHQLSTVDAHAQTPVLQVRPLDNPAMISLPPPSAATGVFSLKARPGLPPGINVASLEWVSREPALLCTFPRSGTPRKDSNLLAAPQGSYPLLANGVCKWPGCEKVFEEPEEFLKHCQADHLLDEKGKAQCLLQREVVQSLEQQLELEKEKLGAMQAHLAGKMALAKAPSVASMDKSSCCIVATSTQGSVLPAWSAPREAPDGGLFAVRRHLWGSHGNSSFPEFFHNMDYFKYHNMRPPFTYATLIRWAILEAPERQRTLNEIYHWFTRMFAYFRNHPATWKNAIRHNLSLHKCFVRVESEKGAVWTVDEFEFRKKRSQRPNKCSNPCP

Variants of: B1
Conditions: with runx1_mouse Runx1, Q03347
Chain of runx1_mouse Runx1, Q03347 (Q03347 whole entry): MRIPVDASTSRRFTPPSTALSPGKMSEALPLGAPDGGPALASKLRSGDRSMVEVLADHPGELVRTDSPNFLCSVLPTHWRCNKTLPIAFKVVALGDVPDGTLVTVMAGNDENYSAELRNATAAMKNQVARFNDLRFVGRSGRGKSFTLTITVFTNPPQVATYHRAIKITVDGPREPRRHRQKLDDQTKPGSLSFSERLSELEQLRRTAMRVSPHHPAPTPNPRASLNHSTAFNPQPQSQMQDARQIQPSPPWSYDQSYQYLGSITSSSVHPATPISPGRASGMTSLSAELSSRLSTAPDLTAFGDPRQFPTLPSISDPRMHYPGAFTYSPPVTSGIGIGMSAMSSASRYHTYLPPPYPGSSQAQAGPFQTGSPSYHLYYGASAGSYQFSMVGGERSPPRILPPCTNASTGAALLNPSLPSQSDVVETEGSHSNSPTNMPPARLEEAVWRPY

Row | effect of a mutation on the interaction | Variant
1 | disrupting interaction strength | D329V;Y330H;K332L
2 | decreasing interaction strength | D329V;Y330H
